Assays:
Test in all cases: ELISA
human CD81 mutant D137E = biological target: T1, human CD81 mutant D137E (human, UniProt P60033 1-236, limits assumed)
T1 construct: as m30; not shown: C-terminal V5 and 6xHis tags
T1 sequence: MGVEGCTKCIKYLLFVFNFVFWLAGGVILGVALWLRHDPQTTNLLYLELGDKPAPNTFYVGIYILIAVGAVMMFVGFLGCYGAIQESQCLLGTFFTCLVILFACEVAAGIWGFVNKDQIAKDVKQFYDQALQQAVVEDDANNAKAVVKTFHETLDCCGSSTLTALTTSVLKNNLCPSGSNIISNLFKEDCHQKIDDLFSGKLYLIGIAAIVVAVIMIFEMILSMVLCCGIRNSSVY
Procedure, shortened: (§1)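 Human CD81 point mutants in pcDNA-DEST40 with C-terminal V5 and 6×His tags were expressed transiently in CHO cells for 48 hours. Membranes were solubilised with 1% n-octylglucoside and loaded at 5 μg/100 μL/well on Ni-NTA His Sorb plates (3 hours, 4° C). Antibody binding (1 hour, room temperature) was detected with HRP anti-human IgG4, TMB and absorbance at 450 nm. Relative binding affinity is the percentage of wild-type CD81 binding, corrected for V5-tag expression.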

human CD81 mutant V169L = biological target: T2, human CD81 mutant V169L (human, UniProt P60033 1-236, limits assumed)
T2 construct: as m30; not shown: C-terminal V5 and 6xHis tags
T2 sequence: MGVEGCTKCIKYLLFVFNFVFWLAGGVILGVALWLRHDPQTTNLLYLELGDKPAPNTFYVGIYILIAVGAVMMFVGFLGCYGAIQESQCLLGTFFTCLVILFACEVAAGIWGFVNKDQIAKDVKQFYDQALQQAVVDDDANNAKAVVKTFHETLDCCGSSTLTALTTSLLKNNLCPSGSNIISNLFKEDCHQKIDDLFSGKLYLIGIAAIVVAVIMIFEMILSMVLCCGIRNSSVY
Procedure, shortened: as §1

human CD81 mutant V135L = biological target: T3, human CD81 mutant V135L (human, UniProt P60033 1-236, limits assumed)
T3 construct: as m30; not shown: C-terminal V5 and 6xHis tags
T3 sequence: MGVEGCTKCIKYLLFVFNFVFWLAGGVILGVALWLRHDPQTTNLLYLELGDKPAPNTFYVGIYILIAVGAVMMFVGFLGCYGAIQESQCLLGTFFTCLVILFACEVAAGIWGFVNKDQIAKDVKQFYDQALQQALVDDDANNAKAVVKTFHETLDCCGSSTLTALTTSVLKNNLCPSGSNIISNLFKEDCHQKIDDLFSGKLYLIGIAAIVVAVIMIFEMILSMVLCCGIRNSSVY
Procedure, shortened: as §1

human CD81 mutant D137A = biological target: T4, human CD81 mutant D137A (human, UniProt P60033 1-236, limits assumed)
T4 construct: as m30; not shown: C-terminal V5 and 6xHis tags
T4 sequence: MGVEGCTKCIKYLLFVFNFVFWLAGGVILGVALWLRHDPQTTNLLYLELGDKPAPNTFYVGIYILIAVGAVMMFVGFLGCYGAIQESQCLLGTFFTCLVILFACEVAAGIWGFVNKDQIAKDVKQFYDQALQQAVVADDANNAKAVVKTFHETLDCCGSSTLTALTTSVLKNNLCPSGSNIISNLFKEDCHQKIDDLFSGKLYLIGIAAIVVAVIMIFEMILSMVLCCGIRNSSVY
Procedure, shortened: as §1

human CD81 mutant A164V = biological target: T5, human CD81 mutant A164V (human, UniProt P60033 1-236, limits assumed)
T5 construct: as m30; not shown: C-terminal V5 and 6xHis tags
T5 sequence: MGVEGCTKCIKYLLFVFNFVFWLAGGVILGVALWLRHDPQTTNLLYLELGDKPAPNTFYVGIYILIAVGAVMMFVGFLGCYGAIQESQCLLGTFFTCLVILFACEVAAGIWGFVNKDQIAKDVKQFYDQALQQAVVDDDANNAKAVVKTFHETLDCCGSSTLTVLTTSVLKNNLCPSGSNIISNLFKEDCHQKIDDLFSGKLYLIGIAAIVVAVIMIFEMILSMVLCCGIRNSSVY
Procedure, shortened: as §1

human CD81 mutant G158A = biological target: T6, human CD81 mutant G158A (human, UniProt P60033 1-236, limits assumed)
T6 construct: as m30; not shown: C-terminal V5 and 6xHis tags
T6 sequence: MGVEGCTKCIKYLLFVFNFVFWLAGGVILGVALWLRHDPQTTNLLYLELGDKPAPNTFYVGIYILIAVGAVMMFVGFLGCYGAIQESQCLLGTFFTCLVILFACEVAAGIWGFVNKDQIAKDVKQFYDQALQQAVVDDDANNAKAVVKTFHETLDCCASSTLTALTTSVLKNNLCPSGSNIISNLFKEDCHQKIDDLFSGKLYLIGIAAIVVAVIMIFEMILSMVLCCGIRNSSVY
Procedure, shortened: as §1

human CD81 mutant A164T = biological target: T7, human CD81 mutant A164T (human, UniProt P60033 1-236, limits assumed)
T7 construct: as m30; not shown: C-terminal V5 and 6xHis tags
T7 sequence: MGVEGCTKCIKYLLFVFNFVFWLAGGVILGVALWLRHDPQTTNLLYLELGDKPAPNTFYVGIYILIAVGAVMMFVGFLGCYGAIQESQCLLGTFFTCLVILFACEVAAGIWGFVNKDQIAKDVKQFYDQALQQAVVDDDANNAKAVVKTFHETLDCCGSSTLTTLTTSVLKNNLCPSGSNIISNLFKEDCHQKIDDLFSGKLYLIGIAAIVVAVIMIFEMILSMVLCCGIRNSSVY
Procedure, shortened: as §1

relative binding affinity (human CD81 mutant D137E): < 20%
relative binding affinity (human CD81 mutant V169L): < 20%
relative binding affinity (human CD81 mutant V135L): < 20%
relative binding affinity (human CD81 mutant D137A): < 20%
relative binding affinity (human CD81 mutant A164V): < 20%
relative binding affinity (human CD81 mutant G158A): < 20%
relative binding affinity (human CD81 mutant A164T): < 20%
B1: 002-A07 IgG4 antibody (antibody)
heavy: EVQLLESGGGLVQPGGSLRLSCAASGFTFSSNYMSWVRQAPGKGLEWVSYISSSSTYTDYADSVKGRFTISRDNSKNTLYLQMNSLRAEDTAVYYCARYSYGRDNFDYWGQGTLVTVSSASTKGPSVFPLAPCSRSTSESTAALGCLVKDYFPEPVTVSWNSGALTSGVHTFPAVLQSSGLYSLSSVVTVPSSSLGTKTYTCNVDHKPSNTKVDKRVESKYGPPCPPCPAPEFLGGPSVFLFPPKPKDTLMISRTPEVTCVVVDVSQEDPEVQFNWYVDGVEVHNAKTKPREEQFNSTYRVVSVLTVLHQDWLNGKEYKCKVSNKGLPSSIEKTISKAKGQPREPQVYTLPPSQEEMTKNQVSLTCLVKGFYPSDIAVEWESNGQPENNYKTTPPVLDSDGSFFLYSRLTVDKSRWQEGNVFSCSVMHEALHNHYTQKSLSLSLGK
light: QSVLTQPPSASGTPGQRVTISCTGSTSNIGAGYDTHWYQQLPGTAPKLLIYGNSNRPSGVPDRFSGSKSGTSASLAISGLRSEDEADYYCQSYDTNLSVWVFGGGTKLTVLGQPKAAPSVTLFPPSSEELQANKATLVCLISDFYPGAVTVAWKADSSPVKAGVETTTPSKQSNNKYAASSYLSLTPEQWKSHRSYSCQVTHEGSTVEKTVAPTECS
notes: human IgG4 S228P, lambda light chain

— patent US20150139990A1 (DAINIPPON SUMITOMO PHARMA, published 2015)
